The Human Domainome abundance scans (Beltran et al. 2025)
± gives the uncertainty stated by the source.

B1: Endonuclease CUE2, residues 9 to 47; numbered along this chain, P36075 (parent)
chain: HESKLSILMDMFPAISKSKLQVHLLENNNDLDLTIGLLL
B2: Telomeric repeat-binding factor 2, residues 489 to 542; numbered along this chain, Q15554 (parent)
chain: KQKWTVEESEWVKAGVQKYGEGNWAAISKNYPFVNRTAVMIKDRWRTMKRLGMN

Variants of: B1
Assay: abundance fitness (aPCA) (normalised: wild type 0, dead -1); higher = more abundant; growth selection in yeast, the domain comes from the species named
Conditions: Saccharomyces cerevisiae (strain ATCC 204508 / S288c)

Variant	abundance fitness
HTSKLSILMDMFPAISKSKLQVHLLENNNDLDLTIGLLL	0.157 ± 0.054
HCSKLSILMDMFPAISKSKLQVHLLENNNDLDLTIGLLL	0.283 ± 0.11
HMSKLSILMDMFPAISKSKLQVHLLENNNDLDLTIGLLL	0.19 ± 0.061
HISKLSILMDMFPAISKSKLQVHLLENNNDLDLTIGLLL	0.14 ± 0.051
HRSKLSILMDMFPAISKSKLQVHLLENNNDLDLTIGLLL	0.13 ± 0.045
HKSKLSILMDMFPAISKSKLQVHLLENNNDLDLTIGLLL	0.153 ± 0.042
HDSKLSILMDMFPAISKSKLQVHLLENNNDLDLTIGLLL	-0.133 ± 0.2
HWSKLSILMDMFPAISKSKLQVHLLENNNDLDLTIGLLL	-0.349 ± 0.068
HQSKLSILMDMFPAISKSKLQVHLLENNNDLDLTIGLLL	0.113 ± 0.042
HSSKLSILMDMFPAISKSKLQVHLLENNNDLDLTIGLLL	-0.319 ± 0.067
HGSKLSILMDMFPAISKSKLQVHLLENNNDLDLTIGLLL	-0.11 ± 0.039
HNSKLSILMDMFPAISKSKLQVHLLENNNDLDLTIGLLL	0.167 ± 0.078
HPSKLSILMDMFPAISKSKLQVHLLENNNDLDLTIGLLL	-0.035 ± 0.066
HVSKLSILMDMFPAISKSKLQVHLLENNNDLDLTIGLLL	-0.195 ± 0.039
HLSKLSILMDMFPAISKSKLQVHLLENNNDLDLTIGLLL	0.109 ± 0.04
HESKESILMDMFPAISKSKLQVHLLENNNDLDLTIGLLL	-0.683 ± 0.076
HESKGSILMDMFPAISKSKLQVHLLENNNDLDLTIGLLL	-0.817 ± 0.055
HESKHSILMDMFPAISKSKLQVHLLENNNDLDLTIGLLL	-1 ± 0.19
HESKASILMDMFPAISKSKLQVHLLENNNDLDLTIGLLL	-0.708 ± 0.068
HESKKSILMDMFPAISKSKLQVHLLENNNDLDLTIGLLL	-0.771 ± 0.27
HESKCSILMDMFPAISKSKLQVHLLENNNDLDLTIGLLL	-0.306 ± 0.066
HESKMSILMDMFPAISKSKLQVHLLENNNDLDLTIGLLL	-0.031 ± 0.065
HESKDSILMDMFPAISKSKLQVHLLENNNDLDLTIGLLL	-0.928 ± 0.25

Variant	abundance fitness
HESKPSILMDMFPAISKSKLQVHLLENNNDLDLTIGLLL	-0.738 ± 0.18
HESNLSILMDMFPAISKSKLQVHLLENNNDLDLTIGLLL	-0.023 ± 0.1
HESYLSILMDMFPAISKSKLQVHLLENNNDLDLTIGLLL	0.127 ± 0.21
HESVLSILMDMFPAISKSKLQVHLLENNNDLDLTIGLLL	-0.37 ± 0.047
HESELSILMDMFPAISKSKLQVHLLENNNDLDLTIGLLL	-0.011 ± 0.034
HESWLSILMDMFPAISKSKLQVHLLENNNDLDLTIGLLL	-0.572 ± 0.057
HESALSILMDMFPAISKSKLQVHLLENNNDLDLTIGLLL	-0.117 ± 0.04
HESFLSILMDMFPAISKSKLQVHLLENNNDLDLTIGLLL	-0.259 ± 0.086
HESLLSILMDMFPAISKSKLQVHLLENNNDLDLTIGLLL	-0.13 ± 0.047
HESRLSILMDMFPAISKSKLQVHLLENNNDLDLTIGLLL	-0.038 ± 0.035
HESQLSILMDMFPAISKSKLQVHLLENNNDLDLTIGLLL	-0.023 ± 0.052
HESGLSILMDMFPAISKSKLQVHLLENNNDLDLTIGLLL	-0.241 ± 0.033
HESPLSILMDMFPAISKSKLQVHLLENNNDLDLTIGLLL	-0.16 ± 0.059
HESDLSILMDMFPAISKSKLQVHLLENNNDLDLTIGLLL	0.115 ± 0.059
HESSLSILMDMFPAISKSKLQVHLLENNNDLDLTIGLLL	-0.001 ± 0.065
HESHLSILMDMFPAISKSKLQVHLLENNNDLDLTIGLLL	0.098 ± 0.19
HESILSILMDMFPAISKSKLQVHLLENNNDLDLTIGLLL	-0.127 ± 0.17
HESMLSILMDMFPAISKSKLQVHLLENNNDLDLTIGLLL	0.188 ± 0.11
HESCLSILMDMFPAISKSKLQVHLLENNNDLDLTIGLLL	-0.061 ± 0.061
CESKLSILMDMFPAISKSKLQVHLLENNNDLDLTIGLLL	0.351 ± 0.12
DESKLSILMDMFPAISKSKLQVHLLENNNDLDLTIGLLL	0.064 ± 0.36
EESKLSILMDMFPAISKSKLQVHLLENNNDLDLTIGLLL	0.361 ± 0.043
TESKLSILMDMFPAISKSKLQVHLLENNNDLDLTIGLLL	0.467 ± 0.062

Variant	abundance fitness
SESKLSILMDMFPAISKSKLQVHLLENNNDLDLTIGLLL	0.174 ± 0.06
KESKLSILMDMFPAISKSKLQVHLLENNNDLDLTIGLLL	0.312 ± 0.062
RESKLSILMDMFPAISKSKLQVHLLENNNDLDLTIGLLL	0.284 ± 0.035
WESKLSILMDMFPAISKSKLQVHLLENNNDLDLTIGLLL	0.05 ± 0.039
LESKLSILMDMFPAISKSKLQVHLLENNNDLDLTIGLLL	0.377 ± 0.045
MESKLSILMDMFPAISKSKLQVHLLENNNDLDLTIGLLL	0.255 ± 0.09
VESKLSILMDMFPAISKSKLQVHLLENNNDLDLTIGLLL	0.28 ± 0.045
GESKLSILMDMFPAISKSKLQVHLLENNNDLDLTIGLLL	0.237 ± 0.037
AESKLSILMDMFPAISKSKLQVHLLENNNDLDLTIGLLL	0.264 ± 0.093
HEAKLSILMDMFPAISKSKLQVHLLENNNDLDLTIGLLL	-0.156 ± 0.04
HEKKLSILMDMFPAISKSKLQVHLLENNNDLDLTIGLLL	-0.094 ± 0.097
HEMKLSILMDMFPAISKSKLQVHLLENNNDLDLTIGLLL	-0.042 ± 0.073
HECKLSILMDMFPAISKSKLQVHLLENNNDLDLTIGLLL	-0.146 ± 0.38
HELKLSILMDMFPAISKSKLQVHLLENNNDLDLTIGLLL	-0.184 ± 0.048
HEQKLSILMDMFPAISKSKLQVHLLENNNDLDLTIGLLL	-0.057 ± 0.051
HERKLSILMDMFPAISKSKLQVHLLENNNDLDLTIGLLL	-0.329 ± 0.04
HEEKLSILMDMFPAISKSKLQVHLLENNNDLDLTIGLLL	-0.106 ± 0.043
HEHKLSILMDMFPAISKSKLQVHLLENNNDLDLTIGLLL	0.014 ± 0.068
HEGKLSILMDMFPAISKSKLQVHLLENNNDLDLTIGLLL	-0.145 ± 0.036
HEVKLSILMDMFPAISKSKLQVHLLENNNDLDLTIGLLL	-0.329 ± 0.047
HETKLSILMDMFPAISKSKLQVHLLENNNDLDLTIGLLL	-0.344 ± 0.063
HEPKLSILMDMFPAISKSKLQVHLLENNNDLDLTIGLLL	-0.453 ± 0.12
HEWKLSILMDMFPAISKSKLQVHLLENNNDLDLTIGLLL	-0.428 ± 0.054

Variants of: B2
Assay: as above
Conditions: Homo sapiens

Variant	abundance fitness
K29N	0.205 ± 0.45
K29C	0.162 ± 0.13
K29Y	-0.116 ± 0.16
K29M	-0.091 ± 0.091
R44L	-0.22 ± 0.04
R44Y	-0.218 ± 0.062
R44V	-0.325 ± 0.055
R44K	-0.124 ± 0.049
S9T	-0.15 ± 0.13
S9N	0.107 ± 0.052
A14P	-0.306 ± 0.24
A14S	0.084 ± 0.086
G52K	-0.149 ± 0.13
G52V	0.004 ± 0.076
G52E	-0.071 ± 0.1
G52T	-0.1 ± 0.24
G52P	0.243 ± 0.1
G15I	0.246 ± 0.38
I27L	-0.457 ± 0.1
I27T	-0.533 ± 0.28
I27K	-0.757 ± 0.09

Variant	abundance fitness
V6G	-0.253 ± 0.061
V6N	-0.433 ± 0.23
V6S	-0.024 ± 0.089
V6A	0.291 ± 0.085
M53L	0.026 ± 0.079
M53T	-0.249 ± 0.16
V16R	-0.323 ± 0.074
V16E	-0.62 ± 0.092
V16W	-0.765 ± 0.094
G20Y	-0.781 ± 0.28
G20V	-0.918 ± 0.25
M48P	-0.886 ± 0.069
M48S	-0.95 ± 0.2
M48G	-1.02 ± 0.1
M48A	-0.821 ± 0.17
M48V	-0.463 ± 0.077
W45C	-0.81 ± 0.13
R46L	0.054 ± 0.049
R46M	0.325 ± 0.089
R46P	-0.828 ± 0.41
R46Q	-0.004 ± 0.12
